Assay: yeast display, Sf9 membrane polyspecificity reagent, FACS + sequencing; frameworks hold sequencing errors
In short: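 Sorting gates, low and high (top ~1%), were placed on anti-HA fluorescence to track expression and on streptavidin fluorescence to track reagent binding. A clone's polyreactivity label is taken from the gate it came out of. The reagent was 10% biotinylated, detergent-solubilized Sf9 membrane, applied for 1 hour at 4 °C to galactose-induced yeast display cells.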

Sequence | polyreactivity (PSR sort gate)
QVQLVESGGGLDQAGGSLRLSCAASGSIFYPYAMRWYRQAPGKERELVAAISSGGGTNYADSVKGRFTISRDNAKNTVYLQMNSLKPEDTEVYYCNARTGTTWQGYEYDYWGQGTQVTVSS | low polyreactivity
QVQLVESGGGLDQAGGSLRLSCAASGSILDSYTMGWYRQAPGKERELVPAITSDGGSTYYADSVKGRFTISRDNAKNTVYLQMNSLKPEDTAVYYCAKLSRYYGFWYTPDFDYWGQGTQVTVSS | high polyreactivity
QVQLVESGGGLDQAGGSLRLSCAASGSILPYYAMGWYRQAPGKERELVATITDGTDTYYADSVKGRFTFSRDNAKNTVYLQMNSLKQEDTAVYYCDRKQYWGYDYWGQGTQVTVSS | low polyreactivity
QVQLVESGGGLDQAGGSLRLSCAASGSISQVYAMGWYRQATGKERELVAVINDADDTSYADSVKGRFTISRDNAKNTVYLQMNSLKPEDTAVYYCAAESSYFVALTQFYTVEFYYWGQGTQLTVSS | low polyreactivity
QVQLVESGGGLDQAGGSLRLSCAASGSTFANNAMGWYREAPGKERELVAAISSGGSTNYADSVKGRFTISRDNAKNTGYLQMNSLKPEDTAVYYCNADAYDEIKYGYWGQGTQVTVSS | low polyreactivity
QVQLVESGGGLDQAGGSLRLSCAASGSTFQAYARGWYRQAPGKERELVAAISRRSGSTYYADSVKGRFTISRDNAKNTVYLQMNSLKPEDTAVYYCNAGSRRPYDYWGQGTQVTVSS | low polyreactivity
QVQLVESGGGLDQAGGSLRLSCAASGSTFQPYAMGRYRQAPGKEREFVATISGSAGSTYYADSVKGRFKISRDNANYTVYLQMNSLKPEDTAVYYCNADSGWFGYDYWGQGNQVTVSS | low polyreactivity
QVQLVESGGGLDQAGGSLRLSCAASGSTFRWYAMGWYRQAPGKERELVAAISSSGGSTYYADSVKGRFTISRDNAKNTVYLQMNSLKPEDTAVYYCAADFTGPFDYWGQGTQVTVSS | high polyreactivity
QVQLVESGGGLDQAGGSLRLSCAASGSTFSFYAMGWYRQAPGKERELVAAISRSGGCKFYADYVKGRFSISRDNEKNTVYLQMNRLKPEDTAVYYCAAKSAVVVGMDSWGQGTQVTVSS | high polyreactivity
QVQLVESGGGLDQAGGSLRLSCAASGSTFSYNAKGWYRQAPGKERELVAAITYRGSSTYYADSVKGRFTSSRDNAKNTVDLQMNSLKPEDTAVYYCAVSYVRYRGSGLTAFNYWGQGTQVTVSS | high polyreactivity
QVQLVESGGGLDQAGGSLRLSCAASGSTFVANAMGWYRQAPGKERELVAAITYRGGSTYYADSVKGRFTISRDNAKNSVYLQMNSLKPEDTAVYYCNTVYYVASASYYWRYDYWGQGTQVTVSS | high polyreactivity
QVQLVESGGGLDQAGGSLRLSCAASGSTFVFYAMVWYIQAPGKEREFVAAITNSGSNTYYADSVKGRFTISRDNAKMTVNLQMNSLKPEDTAVYYCAARPFGRYRGRYYYWGQGTQVTVSS | high polyreactivity
QVQLVESGGGLDQAGGSLRLSCAASGSTFVGYAMGWYRQAPGKERELVAAISGSGTSTYYADSVKGRFTISRDNAKNTVYLQMNSLKPEDTAVYYCNADPIFVYSSYNYWGQGTQVTVSS | low polyreactivity
QVQLVESGGGLDQAGGSLRLSCAASGSTFVLNAMGWYRQAPGKERDLVAAITSNGGRTYYADSVKGRFTISRDNAKNTVYLQMNSLKPEDTAVYYCNAVKTHRVRVHGWDYGYWGQGTQVTVSS | high polyreactivity
QVQLVESGGGLDQAGGSLRLSCAASGSTFVSNAMGWYRQAPGKERELVAAISKSGGSTYYADSVKGRFTISRDNAKNTVYLQMNSLKPEDTAVYYCAKYNAKSFYGQYDYWGQGTQVTVSS | high polyreactivity
QVQLVESGGGLDQAGGSLRLSCAASGSTFYKYAMGWYRQAPGNERDLVAGISSSGGNTYYADSVKGRFTISRDNAKNTDYLQMNSLKPEDTAVYYCAARPRYLKEYDYWGQGTQVSVSS | high polyreactivity

Sequence | polyreactivity (PSR sort gate)
QVQLVESGGGLDQAGGSLRLSCAASGSTIHYYAMGWYRQAPRKERELVAVISSGGSTYYADSVKGRFTISRDNAKNTVYLQMNSLNPEDTAVYYCAKDYRDYNRGWYDYWGQGTQVTVSS | low polyreactivity
QVQLVESGGGLDQAGGSLRLSCAASGSTSPYYTMGWYRQAPGKERELVASINESGGSTYYADSVKGRFTISRDNAKNTVYLLMNSLKPEDTAVYYCNAEYTTPSYPVYRIDYYWFDYWGQGTQVTVSS | low polyreactivity
QVQLVESGGGLDQAGGSLRLSCAASVFIFAYYAMGWYRQAPGKERELVAAITRHGGSTYDADSVKGRFTISRDNAQNTVYLQMNSLKPEETAVYYCNAYFGWSASRQSYDYWGQGTQVTVSS | high polyreactivity
QVQLVESGGGLDQAGGSLRLSCAASVSTFDAYAMVWSTQAPGQERELVAAISSSAASTSYADSVKGRFTISRDNAKNTVYVQMNSLKPEDTAFYYCAARPYRRPWYRGRYYYWGQGTQVTVSS | high polyreactivity
QVQLVESGGGLDQAGGSLRLSCAAYGSTFAPNAMGGYRQSPGKERELVAAISSGSSTYYADSVKGRFTISRDNAKNTVNLQMNSLKPEDTAVYYCIARGLSSLSTIEDYCGQGTQVTVSS | high polyreactivity
QVQLVESGGGLDQAGGSLRLSCADSGRTFYIYAMGWYRQAPGKERELVAAITSVGSTNYADSVKGRFTISRDNAKNTVYLQMNSLKPEDTAVYYCAAESTEGTSGDYDYWGQGTQVTVSS | low polyreactivity
QVQLVESGGGLDQAGGSLRLSCAPSGYTFNVYSMGWYRQAPGNESELVAGISSYGGSTYYADSVKGRFTISRDNAKNTVYIQMNSLKPEDTAVYYCAARSALYPKYESWGQGTQVTVSS | low polyreactivity
QVQLVESGGGLDQAGGSLRLSFAASGFIFRYYTMGWYRQAPGKERELVAVITRGGSTYYADSVKGRFTISRDNAKNTVYLQMNSLKPEDTAVYYCAADRPGTGYSDYDYWGQGTQVTVSS | high polyreactivity
QVQLVESGGGLDQAGGSLRLSFAASGFTFGYYAMGWYRQEPGKARELVAAITYDGDTTYYADSVKGRITISRDNAKNTVYLQMNSLKPEDTAVYYCNRDVLTFNYDYWGQGTQVTVSS | low polyreactivity
QVQLVESGGGLDQAGGSLRLSSAASGLTFGGNAMGWYRQAPGKERELVAAISWSDDTTDYADSVKGRFTISRDNAKNTVYLQMNSLKPEDTAVYYCAARLPFEHVEYWGQGTQVTVSS | low polyreactivity
QVQLVESGGGLDQAGGSLRLSSAASVSIFRYNTMGWYRPAPGKEREFVDSIRIGGSTYYADSVKGRFTISRDNAKNTVYLQMNSLKPEDTAVYYCAVRPYRSAGGSVTRGAYYYWGQGTQVTVSS | high polyreactivity
QVQLVESGGGLDQAGGSLRLSWAASGFTFKNYTMGWYRQAPGKERELVAAISKSGDITYYADSVKGRFTISRDNAKNTVYLQMNSLKPEDTAVYYCNAPRRNWSYDYWGQGTQVTVSS | high polyreactivity
QVQLVESGGGLDQAGGSLRLTCAASGRTIGSYAMGWYRQAPGKERELVAAISYSGGSTYYADSVKGRFTISRDNAKNTVYLQMNSLKPEDTAVYYCAKSWRYSIIQSYRAGYNYWGQGTQVTVSS | high polyreactivity
QVQLVESGGGLDQAGGSLRLTCAATGRIILGYAMGWYRQAPGKEREFVAANSRGGTSTYYADSVKGRFTISRDNAKNTVYLQMNSLKPEDTAVYYCAVDVPPYRLVRNYYEYDYWGQGTQVTVSS | high polyreactivity
QVQLVESGGGLDQAGGSLRLTWAASGSIFKFYAMGWYRQAPGKERDMVAAISQSGGRTYYADSVKGRFTISRDNAKNSVYLQMNSLKPEDTAVYYCAKSVFPVYGRPSNLWFNYWGQGTQVTVSS | high polyreactivity

From the nanobody polyreactivity screen of Harvey et al. (2022)
